The values below come from publication PMC5299624 (The Journal of General Physiology, 2017).

Sequences and labels used below:
B1: human NaV1.6 C-terminal domain (CTD), amino acids 1769-1926, wild type (domain or fragment)
chain: FSVATEESADPLSEDDFETFYEIWEKFDPDATQFIEYCKLADFADALEHPLRVPKPNTIELIAMDLPMVSGDRIHCLDILFAFTKRVLGDSGELDILRQQMEERFVASNPSKVSYEPITTTLRRKQEEVSAVVLQRAYRGHLARRGFICKKTTSNKLE
B2: human NaV1.2 CTD (1777-1937) H1853R (domain or fragment)
chain: ENFSVATEESAEPLSEDDFEMFYEVWEKFDPDATQFIEFAKLSDFADALDPPLLIAKPNKVQLIAMDLPMVSGDRIRCLDILFAFTKRVLGESGEMDALRIQMEERFMASNPSKVSYEPITTTLKRKQEEVSAIIIQRAYRRYLLKQKVKKVSSIYKKDKG
B3: human NaV1.2 CTD (1777-1937) R1918H (domain or fragment)
chain: ENFSVATEESAEPLSEDDFEMFYEVWEKFDPDATQFIEFAKLSDFADALDPPLLIAKPNKVQLIAMDLPMVSGDRIHCLDILFAFTKRVLGESGEMDALRIQMEERFMASNPSKVSYEPITTTLKRKQEEVSAIIIQRAYRHYLLKQKVKKVSSIYKKDKG

For this experiment, the target named is calmodulin (CaM) (UniProt P0DP23 1-149). The experiment can be described thus: ITC.
In turn, B1 registered a Kd of 276 nM.

In turn, B2 returned a Kd of 172 nM.

B3 had a Kd of 112 nM.
